Biological target: Human CCR8 (human) (UniProt P51685)
Test: cell-based or functional assay

Human CCR8 (human), sequence (P51685 whole entry): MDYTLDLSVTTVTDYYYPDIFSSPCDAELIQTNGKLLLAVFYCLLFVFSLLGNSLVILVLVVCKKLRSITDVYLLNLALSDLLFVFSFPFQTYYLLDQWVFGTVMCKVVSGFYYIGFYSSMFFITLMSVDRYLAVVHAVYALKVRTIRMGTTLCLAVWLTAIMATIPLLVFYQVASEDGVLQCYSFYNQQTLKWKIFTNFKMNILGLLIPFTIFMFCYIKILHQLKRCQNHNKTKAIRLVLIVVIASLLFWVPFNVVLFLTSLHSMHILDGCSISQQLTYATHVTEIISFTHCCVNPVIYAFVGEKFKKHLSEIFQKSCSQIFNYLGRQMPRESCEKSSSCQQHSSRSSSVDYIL

EC90 of chemotaxis of hCCR8 L1.2 cells: 5.84 nM
Substance: human CCL1 (from UniProt P22362 24-96) (ligand)

— patent US20260098096A1
